How the values were obtained:
[1] = system: AncSZ; assay: phosphorylation enrichment, bacterial display (enrichment ratio); higher = better substrate or ligand; peptides without Tyr show the background
[2] = target: MERTK (UniProt Q12866); assay: as above
[3] = target: FGFR3 (UniProt P22607); assay: as above
[4] = target: EPHB2 (UniProt P29323); assay: as above
[5] = system: c-Src; assay: as above
[6] = target: Fes (UniProt P07332); assay: as above
[7] = target: Jak2 (UniProt O60674); assay: as above
[8] = system: Fer (mouse); assay: as above
[9] = target: Hck (UniProt P08631); assay: as above
[10] = target: Fyn (UniProt P06241); assay: as above
[11] = system: c-Abl (mouse); assay: as above
[12] = target: FGFR1 (UniProt P11362); assay: as above
[13] = target: EPHB1 (UniProt P54762); assay: as above
Chain of EPHB1 (P54762 whole entry, looked up): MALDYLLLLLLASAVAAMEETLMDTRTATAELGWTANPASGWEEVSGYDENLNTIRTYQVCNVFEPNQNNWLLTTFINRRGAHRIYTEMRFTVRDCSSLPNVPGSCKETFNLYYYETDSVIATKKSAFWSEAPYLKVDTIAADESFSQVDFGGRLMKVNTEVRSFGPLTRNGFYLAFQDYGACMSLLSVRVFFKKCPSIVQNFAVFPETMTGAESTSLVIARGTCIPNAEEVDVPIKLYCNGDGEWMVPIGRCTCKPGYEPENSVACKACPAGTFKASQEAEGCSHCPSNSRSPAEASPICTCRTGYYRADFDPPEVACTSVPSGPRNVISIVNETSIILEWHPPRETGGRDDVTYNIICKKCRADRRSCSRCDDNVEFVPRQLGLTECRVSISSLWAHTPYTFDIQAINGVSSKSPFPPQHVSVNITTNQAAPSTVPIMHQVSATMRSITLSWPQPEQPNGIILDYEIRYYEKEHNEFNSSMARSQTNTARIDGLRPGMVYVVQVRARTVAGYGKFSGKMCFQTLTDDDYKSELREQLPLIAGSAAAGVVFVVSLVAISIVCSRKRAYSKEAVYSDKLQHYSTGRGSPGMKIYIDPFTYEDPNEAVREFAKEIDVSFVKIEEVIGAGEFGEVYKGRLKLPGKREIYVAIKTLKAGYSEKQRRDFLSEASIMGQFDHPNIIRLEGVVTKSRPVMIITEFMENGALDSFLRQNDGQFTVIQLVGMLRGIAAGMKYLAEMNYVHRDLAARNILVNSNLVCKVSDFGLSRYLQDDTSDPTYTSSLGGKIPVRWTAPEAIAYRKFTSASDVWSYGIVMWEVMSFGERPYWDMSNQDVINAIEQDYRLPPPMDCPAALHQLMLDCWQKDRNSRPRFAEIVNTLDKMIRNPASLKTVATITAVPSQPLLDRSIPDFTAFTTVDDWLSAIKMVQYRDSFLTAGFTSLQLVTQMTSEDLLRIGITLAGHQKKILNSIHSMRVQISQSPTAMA

[14] = target: Grb2 SH2 (UniProt P62993); assay: SH2 binding enrichment of the phosphorylated peptide, bacterial display (enrichment ratio); higher = better substrate or ligand; peptides without Tyr show the background
Chain of Grb2 SH2 (P62993 whole entry, looked up): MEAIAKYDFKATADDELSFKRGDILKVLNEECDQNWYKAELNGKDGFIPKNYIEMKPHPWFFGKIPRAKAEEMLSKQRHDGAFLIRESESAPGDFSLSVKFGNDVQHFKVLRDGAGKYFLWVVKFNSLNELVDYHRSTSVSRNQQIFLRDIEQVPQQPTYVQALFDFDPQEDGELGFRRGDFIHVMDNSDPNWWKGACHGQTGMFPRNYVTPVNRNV

[15] = target: SHP2-C SH2; assay: as above
[16] = target: c-Src SH2; assay: as above
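For SH2 binding enrichment of the phosphorylated peptide, bacterial display in this document: peptide library displayed on the E. coli surface as eCPX fusions, selected cells deep-sequenced, score is each peptide's frequency after selection divided by its frequency in the input.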
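For phosphorylation enrichment, bacterial display in this document: 11-residue human phosphosite peptides and single-mutation variants displayed on the E. coli surface, counted by deep sequencing, each peptide's frequency after selection divided by its frequency in the unselected input library; frequency after pTyr selection over input frequency; kinase dosed for 20-30% of maximal phosphorylation in three min.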

Chain of Fes (P07332 whole entry, looked up): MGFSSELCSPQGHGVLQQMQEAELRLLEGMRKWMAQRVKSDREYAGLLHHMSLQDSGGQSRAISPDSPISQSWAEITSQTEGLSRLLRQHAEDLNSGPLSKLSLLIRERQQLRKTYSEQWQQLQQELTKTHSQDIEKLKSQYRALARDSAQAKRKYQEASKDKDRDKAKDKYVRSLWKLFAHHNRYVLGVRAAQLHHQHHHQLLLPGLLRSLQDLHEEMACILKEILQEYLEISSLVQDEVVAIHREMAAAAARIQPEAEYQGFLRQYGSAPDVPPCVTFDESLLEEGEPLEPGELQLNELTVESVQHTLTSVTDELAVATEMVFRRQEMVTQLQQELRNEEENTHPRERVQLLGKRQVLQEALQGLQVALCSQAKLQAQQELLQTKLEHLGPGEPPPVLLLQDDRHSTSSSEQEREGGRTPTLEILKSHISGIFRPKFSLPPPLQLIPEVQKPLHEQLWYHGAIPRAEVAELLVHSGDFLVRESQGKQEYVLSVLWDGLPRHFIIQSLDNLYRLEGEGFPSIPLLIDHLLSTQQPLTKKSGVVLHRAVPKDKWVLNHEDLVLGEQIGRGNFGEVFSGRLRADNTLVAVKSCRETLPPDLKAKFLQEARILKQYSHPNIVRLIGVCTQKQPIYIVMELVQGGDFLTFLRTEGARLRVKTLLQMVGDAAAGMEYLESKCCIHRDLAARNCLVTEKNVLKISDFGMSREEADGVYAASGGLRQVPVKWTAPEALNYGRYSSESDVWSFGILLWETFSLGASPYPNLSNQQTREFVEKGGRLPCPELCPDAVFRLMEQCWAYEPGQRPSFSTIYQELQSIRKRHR
Chain of FGFR3 (P22607 whole entry, looked up): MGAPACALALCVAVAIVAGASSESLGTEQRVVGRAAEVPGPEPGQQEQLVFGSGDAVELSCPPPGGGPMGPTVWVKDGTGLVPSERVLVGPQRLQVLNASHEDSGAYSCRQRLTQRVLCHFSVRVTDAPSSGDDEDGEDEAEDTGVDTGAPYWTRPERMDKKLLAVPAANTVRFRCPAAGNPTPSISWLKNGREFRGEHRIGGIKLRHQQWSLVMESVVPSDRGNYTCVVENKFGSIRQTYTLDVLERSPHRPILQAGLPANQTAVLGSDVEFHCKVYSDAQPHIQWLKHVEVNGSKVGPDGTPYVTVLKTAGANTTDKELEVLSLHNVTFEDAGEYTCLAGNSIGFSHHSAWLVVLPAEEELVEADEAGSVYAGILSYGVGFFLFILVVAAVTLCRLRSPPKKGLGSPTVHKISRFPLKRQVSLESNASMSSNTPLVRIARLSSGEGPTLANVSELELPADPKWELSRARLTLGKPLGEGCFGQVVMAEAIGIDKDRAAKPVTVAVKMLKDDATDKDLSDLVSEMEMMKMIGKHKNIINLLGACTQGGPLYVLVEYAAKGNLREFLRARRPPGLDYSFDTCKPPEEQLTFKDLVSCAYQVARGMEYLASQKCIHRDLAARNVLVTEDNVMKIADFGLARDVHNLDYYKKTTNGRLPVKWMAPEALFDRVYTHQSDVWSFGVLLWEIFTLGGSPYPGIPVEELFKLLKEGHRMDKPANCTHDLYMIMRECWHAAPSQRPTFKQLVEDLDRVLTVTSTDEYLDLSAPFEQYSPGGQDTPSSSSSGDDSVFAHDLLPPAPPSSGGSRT
Chain of MERTK (Q12866 whole entry, looked up): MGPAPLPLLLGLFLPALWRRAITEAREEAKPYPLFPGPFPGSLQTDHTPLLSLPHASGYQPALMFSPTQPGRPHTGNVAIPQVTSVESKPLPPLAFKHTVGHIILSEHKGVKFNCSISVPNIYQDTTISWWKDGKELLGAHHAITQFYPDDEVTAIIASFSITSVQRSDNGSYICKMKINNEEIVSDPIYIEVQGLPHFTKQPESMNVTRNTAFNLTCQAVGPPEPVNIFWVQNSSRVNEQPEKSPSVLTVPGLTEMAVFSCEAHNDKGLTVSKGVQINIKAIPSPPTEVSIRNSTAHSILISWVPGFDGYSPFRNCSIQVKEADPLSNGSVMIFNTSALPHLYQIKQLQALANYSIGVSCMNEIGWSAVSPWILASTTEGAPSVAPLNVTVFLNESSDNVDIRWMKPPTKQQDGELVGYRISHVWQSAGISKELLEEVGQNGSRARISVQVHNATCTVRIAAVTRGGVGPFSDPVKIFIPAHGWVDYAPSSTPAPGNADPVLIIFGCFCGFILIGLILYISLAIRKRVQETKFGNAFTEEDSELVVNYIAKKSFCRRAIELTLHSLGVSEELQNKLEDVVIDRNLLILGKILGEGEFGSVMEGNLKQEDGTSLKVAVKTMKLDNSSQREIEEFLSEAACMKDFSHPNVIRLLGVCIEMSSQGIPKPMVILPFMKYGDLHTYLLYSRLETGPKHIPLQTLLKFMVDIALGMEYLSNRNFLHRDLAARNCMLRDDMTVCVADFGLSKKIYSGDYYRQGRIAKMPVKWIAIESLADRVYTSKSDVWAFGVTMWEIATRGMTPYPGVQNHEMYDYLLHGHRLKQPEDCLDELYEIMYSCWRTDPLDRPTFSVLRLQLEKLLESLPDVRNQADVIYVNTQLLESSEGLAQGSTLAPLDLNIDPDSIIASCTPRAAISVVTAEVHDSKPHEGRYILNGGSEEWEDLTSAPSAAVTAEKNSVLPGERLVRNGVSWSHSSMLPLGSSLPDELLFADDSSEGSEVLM
Chain of EPHB2 (P29323 whole entry, looked up): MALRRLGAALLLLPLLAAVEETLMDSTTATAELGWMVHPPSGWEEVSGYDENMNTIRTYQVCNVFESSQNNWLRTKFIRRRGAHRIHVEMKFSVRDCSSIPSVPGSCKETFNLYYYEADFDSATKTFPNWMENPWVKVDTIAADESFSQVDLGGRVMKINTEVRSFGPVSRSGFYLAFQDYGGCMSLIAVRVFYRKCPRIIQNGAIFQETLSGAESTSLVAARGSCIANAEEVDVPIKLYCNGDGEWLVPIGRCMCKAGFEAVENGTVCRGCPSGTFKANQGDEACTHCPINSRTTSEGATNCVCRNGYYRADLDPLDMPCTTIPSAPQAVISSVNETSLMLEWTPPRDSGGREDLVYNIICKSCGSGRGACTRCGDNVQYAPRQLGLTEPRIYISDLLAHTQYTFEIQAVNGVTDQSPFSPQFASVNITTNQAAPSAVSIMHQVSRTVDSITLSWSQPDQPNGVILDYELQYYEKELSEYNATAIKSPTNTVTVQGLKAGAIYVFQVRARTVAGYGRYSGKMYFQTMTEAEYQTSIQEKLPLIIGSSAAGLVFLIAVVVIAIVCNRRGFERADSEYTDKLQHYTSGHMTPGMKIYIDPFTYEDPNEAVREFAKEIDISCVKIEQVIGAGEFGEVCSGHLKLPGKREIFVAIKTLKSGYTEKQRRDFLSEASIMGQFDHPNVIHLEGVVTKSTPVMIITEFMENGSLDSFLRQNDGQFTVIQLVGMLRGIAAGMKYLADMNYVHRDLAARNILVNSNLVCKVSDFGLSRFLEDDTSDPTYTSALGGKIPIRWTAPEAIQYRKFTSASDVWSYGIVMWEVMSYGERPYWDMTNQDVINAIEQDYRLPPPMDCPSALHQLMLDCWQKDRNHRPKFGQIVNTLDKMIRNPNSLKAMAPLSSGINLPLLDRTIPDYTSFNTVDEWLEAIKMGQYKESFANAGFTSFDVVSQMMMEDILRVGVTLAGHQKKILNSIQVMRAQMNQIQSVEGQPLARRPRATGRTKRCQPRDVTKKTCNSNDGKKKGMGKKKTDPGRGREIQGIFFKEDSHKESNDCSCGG

With RLLVIYPWTQR [HBG2_Y36_V35I] the phosphorylation enrichment [1] was 1.98, the phosphorylation enrichment [2] was 0.58 and the phosphorylation enrichment [3] was 1.03. The phosphorylation enrichment [4] was 0.639, the phosphorylation enrichment [5] was 0.588 and the phosphorylation enrichment [6] was 1.46. The phosphorylation enrichment [7] was 1.12, the phosphorylation enrichment [8] was 0.498 and the phosphorylation enrichment [9] was 0.635. It also gave a phosphorylation enrichment [10] of 0.793, a phosphorylation enrichment [11] of 0.907 and a phosphorylation enrichment [12] of 0.594. The phosphorylation enrichment [13] was 0.836, the SH2 binding enrichment [14] was 1.97 and the SH2 binding enrichment [15] was 1.49. The SH2 binding enrichment [16] was 1.31.
ANAYIYVVQLP [L1CAM_Y420] gave a phosphorylation enrichment [1] of 1.33, a phosphorylation enrichment [2] of 1.53 and a phosphorylation enrichment [3] of 1.18. It also gave a phosphorylation enrichment [4] of 0.735, a phosphorylation enrichment [5] of 1.04 and a phosphorylation enrichment [6] of 1.17. For the same sequence, the phosphorylation enrichment [7] was 1.14, the phosphorylation enrichment [8] was 0.478 and the phosphorylation enrichment [9] was 0.714. It also gave a phosphorylation enrichment [10] of 0.841, a phosphorylation enrichment [11] of 0.734 and a phosphorylation enrichment [12] of 1.25. It also gave a phosphorylation enrichment [13] of 0.875, an SH2 binding enrichment [14] of 1.37 and an SH2 binding enrichment [15] of 1.44. The SH2 binding enrichment [16] was 0.814.
Sequence MGGSLYFSFPD [HIKESHI_Y55_V54L_YF] has a phosphorylation enrichment [1] of 2.27, a phosphorylation enrichment [2] of 9.75 and a phosphorylation enrichment [3] of 5.74. For the same sequence, the phosphorylation enrichment [4] was 5.46, the phosphorylation enrichment [5] was 5.75 and the phosphorylation enrichment [6] was 1.8. For the same sequence, the phosphorylation enrichment [7] was 3.96, the phosphorylation enrichment [8] was 0.871 and the phosphorylation enrichment [9] was 4.95. For the same sequence, the phosphorylation enrichment [10] was 5.08, the phosphorylation enrichment [11] was 1.61 and the phosphorylation enrichment [12] was 5.92. It also gave a phosphorylation enrichment [13] of 7.73, an SH2 binding enrichment [14] of 0.926 and an SH2 binding enrichment [15] of 0.591. The SH2 binding enrichment [16] was 0.444.
In the case of DLLMQYPKAQG [FAM83C_Y600], the phosphorylation enrichment [1] is reported as 0.812, the phosphorylation enrichment [2] is reported as 0.356 and the phosphorylation enrichment [3] is reported as 0.467. It also gave a phosphorylation enrichment [4] of 0.301, a phosphorylation enrichment [5] of 0.352 and a phosphorylation enrichment [6] of 0.543. For the same sequence, the phosphorylation enrichment [7] was 0.496, the phosphorylation enrichment [8] was 0.452 and the phosphorylation enrichment [9] was 0.364. It also gave a phosphorylation enrichment [10] of 0.385, a phosphorylation enrichment [11] of 0.491 and a phosphorylation enrichment [12] of 0.341. It also gave a phosphorylation enrichment [13] of 0.498, an SH2 binding enrichment [14] of 0.882 and an SH2 binding enrichment [15] of 0.763. It also gave an SH2 binding enrichment [16] of 0.485.
ADLLVYIKALN [HPRT1_Y81_D80V] gave a phosphorylation enrichment [1] of 1.11, a phosphorylation enrichment [2] of 0.349 and a phosphorylation enrichment [3] of 0.935. The phosphorylation enrichment [4] was 0.628, the phosphorylation enrichment [5] was 0.471 and the phosphorylation enrichment [6] was 1.48. It also gave a phosphorylation enrichment [7] of 1.23, a phosphorylation enrichment [8] of 0.511 and a phosphorylation enrichment [9] of 0.657. It also gave a phosphorylation enrichment [10] of 0.455, a phosphorylation enrichment [11] of 0.939 and a phosphorylation enrichment [12] of 0.512. For the same sequence, the phosphorylation enrichment [13] was 0.644, the SH2 binding enrichment [14] was 0.949 and the SH2 binding enrichment [15] was 0.681. It also gave an SH2 binding enrichment [16] of 0.511.
With AEPTGYSAELS [EZR_Y499] the phosphorylation enrichment [1] was 1.03, the phosphorylation enrichment [2] was 0.485 and the phosphorylation enrichment [3] was 0.636. For the same sequence, the phosphorylation enrichment [4] was 0.583, the phosphorylation enrichment [5] was 0.488 and the phosphorylation enrichment [6] was 1.01. For the same sequence, the phosphorylation enrichment [7] was 1.08, the phosphorylation enrichment [8] was 0.535 and the phosphorylation enrichment [9] was 0.616. For the same sequence, the phosphorylation enrichment [10] was 0.524, the phosphorylation enrichment [11] was 0.799 and the phosphorylation enrichment [12] was 0.528. The phosphorylation enrichment [13] was 0.513, the SH2 binding enrichment [14] was 0.721 and the SH2 binding enrichment [15] was 0.525. The SH2 binding enrichment [16] was 0.457.
AKVKPYINGTS [IBTK_Y1064_V1065I] gave a phosphorylation enrichment [1] of 0.471, a phosphorylation enrichment [2] of 0.358 and a phosphorylation enrichment [3] of 0.408. It also gave a phosphorylation enrichment [4] of 0.274, a phosphorylation enrichment [5] of 0.294 and a phosphorylation enrichment [6] of 0.503. The phosphorylation enrichment [7] was 0.369, the phosphorylation enrichment [8] was 0.274 and the phosphorylation enrichment [9] was 0.359. It also gave a phosphorylation enrichment [10] of 0.343, a phosphorylation enrichment [11] of 0.404 and a phosphorylation enrichment [12] of 0.297. For the same sequence, the phosphorylation enrichment [13] was 0.295, the SH2 binding enrichment [14] was 0.999 and the SH2 binding enrichment [15] was 1.05. For the same sequence, the SH2 binding enrichment [16] was 0.737.
EEQFFYEKAIL [BCCIP_Y257_E254Q] showed a phosphorylation enrichment [1] of 1.11, a phosphorylation enrichment [2] of 0.502 and a phosphorylation enrichment [3] of 0.588. The phosphorylation enrichment [4] was 0.48, the phosphorylation enrichment [5] was 0.608 and the phosphorylation enrichment [6] was 0.999. For the same sequence, the phosphorylation enrichment [7] was 0.828, the phosphorylation enrichment [8] was 3.96 and the phosphorylation enrichment [9] was 0.654. For the same sequence, the phosphorylation enrichment [10] was 0.466, the phosphorylation enrichment [11] was 0.748 and the phosphorylation enrichment [12] was 0.442. For the same sequence, the phosphorylation enrichment [13] was 0.434, the SH2 binding enrichment [14] was 1.04 and the SH2 binding enrichment [15] was 0.795. For the same sequence, the SH2 binding enrichment [16] was 0.53.
In the case of LGGAMYFLEAE [PKHD1_Y452_YF], the phosphorylation enrichment [1] is reported as 1.53, the phosphorylation enrichment [2] is reported as 0.709 and the phosphorylation enrichment [3] is reported as 1.51. For the same sequence, the phosphorylation enrichment [4] was 0.984, the phosphorylation enrichment [5] was 1.01 and the phosphorylation enrichment [6] was 1.8. It also gave a phosphorylation enrichment [7] of 1.34, a phosphorylation enrichment [8] of 0.623 and a phosphorylation enrichment [9] of 1.07. It also gave a phosphorylation enrichment [10] of 1.13, a phosphorylation enrichment [11] of 0.784 and a phosphorylation enrichment [12] of 0.62. For the same sequence, the phosphorylation enrichment [13] was 0.999, the SH2 binding enrichment [14] was 0.868 and the SH2 binding enrichment [15] was 0.75. It also gave an SH2 binding enrichment [16] of 0.802.
For ISIFHYAKGQP [MPZ_Y82], the phosphorylation enrichment [1] was 1.04, the phosphorylation enrichment [2] was 0.379 and the phosphorylation enrichment [3] was 0.68. It also gave a phosphorylation enrichment [4] of 0.481, a phosphorylation enrichment [5] of 0.35 and a phosphorylation enrichment [6] of 1.03. It also gave a phosphorylation enrichment [7] of 0.855, a phosphorylation enrichment [8] of 0.434 and a phosphorylation enrichment [9] of 0.466. The phosphorylation enrichment [10] was 0.463, the phosphorylation enrichment [11] was 0.644 and the phosphorylation enrichment [12] was 0.456. The phosphorylation enrichment [13] was 0.69, the SH2 binding enrichment [14] was 0.874 and the SH2 binding enrichment [15] was 0.739. The SH2 binding enrichment [16] was 0.7.
DTQNSYGCATS [TSC1_Y304] showed a phosphorylation enrichment [1] of 0.7, a phosphorylation enrichment [2] of 0.393 and a phosphorylation enrichment [3] of 0.707. It also gave a phosphorylation enrichment [4] of 0.445, a phosphorylation enrichment [5] of 0.555 and a phosphorylation enrichment [6] of 0.834. It also gave a phosphorylation enrichment [7] of 0.489, a phosphorylation enrichment [8] of 0.483 and a phosphorylation enrichment [9] of 0.498. It also gave a phosphorylation enrichment [10] of 0.433, a phosphorylation enrichment [11] of 0.884 and a phosphorylation enrichment [12] of 0.422. For the same sequence, the phosphorylation enrichment [13] was 0.432, the SH2 binding enrichment [14] was 0.867 and the SH2 binding enrichment [15] was 0.918. For the same sequence, the SH2 binding enrichment [16] was 0.595.
HYEFKYVINAI [MAOA_Y268_C266F] showed a phosphorylation enrichment [1] of 1.75, a phosphorylation enrichment [2] of 0.572 and a phosphorylation enrichment [3] of 0.964. It also gave a phosphorylation enrichment [4] of 0.782, a phosphorylation enrichment [5] of 0.536 and a phosphorylation enrichment [6] of 1.72. It also gave a phosphorylation enrichment [7] of 1.55, a phosphorylation enrichment [8] of 0.74 and a phosphorylation enrichment [9] of 0.489. The phosphorylation enrichment [10] was 0.481, the phosphorylation enrichment [11] was 1.28 and the phosphorylation enrichment [12] was 0.471. For the same sequence, the phosphorylation enrichment [13] was 1.05, the SH2 binding enrichment [14] was 0.868 and the SH2 binding enrichment [15] was 0.69. The SH2 binding enrichment [16] was 0.582.
FLEKFYKFGSR [NNMT_Y25_YF] gave a phosphorylation enrichment [1] of 0.723, a phosphorylation enrichment [2] of 0.433 and a phosphorylation enrichment [3] of 0.548. For the same sequence, the phosphorylation enrichment [4] was 0.6, the phosphorylation enrichment [5] was 0.365 and the phosphorylation enrichment [6] was 0.746. It also gave a phosphorylation enrichment [7] of 0.679, a phosphorylation enrichment [8] of 0.389 and a phosphorylation enrichment [9] of 0.341. It also gave a phosphorylation enrichment [10] of 0.413, a phosphorylation enrichment [11] of 0.551 and a phosphorylation enrichment [12] of 0.571. It also gave a phosphorylation enrichment [13] of 0.592, an SH2 binding enrichment [14] of 0.883 and an SH2 binding enrichment [15] of 0.789. The SH2 binding enrichment [16] was 0.428.
Sequence SVVVPYEPLEV [TP53_Y220_P223L] has a phosphorylation enrichment [1] of 1.19, a phosphorylation enrichment [2] of 0.489 and a phosphorylation enrichment [3] of 0.836. For the same sequence, the phosphorylation enrichment [4] was 0.602, the phosphorylation enrichment [5] was 0.46 and the phosphorylation enrichment [6] was 1.23. For the same sequence, the phosphorylation enrichment [7] was 0.947, the phosphorylation enrichment [8] was 0.934 and the phosphorylation enrichment [9] was 0.533. The phosphorylation enrichment [10] was 0.587, the phosphorylation enrichment [11] was 0.697 and the phosphorylation enrichment [12] was 0.531. The phosphorylation enrichment [13] was 0.562, the SH2 binding enrichment [14] was 0.849 and the SH2 binding enrichment [15] was 0.598. It also gave an SH2 binding enrichment [16] of 2.45.
With DRLASYLDKMR [KRT17_Y98_V102M] the phosphorylation enrichment [1] was 0.697, the phosphorylation enrichment [2] was 0.45 and the phosphorylation enrichment [3] was 0.513. For the same sequence, the phosphorylation enrichment [4] was 0.467, the phosphorylation enrichment [5] was 0.459 and the phosphorylation enrichment [6] was 0.912. For the same sequence, the phosphorylation enrichment [7] was 0.667, the phosphorylation enrichment [8] was 0.436 and the phosphorylation enrichment [9] was 0.473. The phosphorylation enrichment [10] was 0.751, the phosphorylation enrichment [11] was 0.606 and the phosphorylation enrichment [12] was 0.483. It also gave a phosphorylation enrichment [13] of 0.376, an SH2 binding enrichment [14] of 1.03 and an SH2 binding enrichment [15] of 0.529. For the same sequence, the SH2 binding enrichment [16] was 0.488.
Sequence IVAREYFSEAD [CAMK2A_Y106_YF] has a phosphorylation enrichment [1] of 1.09, a phosphorylation enrichment [2] of 0.472 and a phosphorylation enrichment [3] of 0.752. It also gave a phosphorylation enrichment [4] of 0.657, a phosphorylation enrichment [5] of 0.491 and a phosphorylation enrichment [6] of 1.16. It also gave a phosphorylation enrichment [7] of 0.965, a phosphorylation enrichment [8] of 0.563 and a phosphorylation enrichment [9] of 0.5. It also gave a phosphorylation enrichment [10] of 0.538, a phosphorylation enrichment [11] of 0.728 and a phosphorylation enrichment [12] of 0.508. The phosphorylation enrichment [13] was 0.6, the SH2 binding enrichment [14] was 0.9 and the SH2 binding enrichment [15] was 0.867. For the same sequence, the SH2 binding enrichment [16] was 0.566.
